Results published in paper PMC4874933.
No end group written: not given here.

Target: fibrils composed of synthetic human λ6 variable domain (rVλ6Wil) (human)
Assay: co-sedimentation

Binder: GGGYSKAQKAQAKQAKQAQKAQKAQAKQAKQAQKAQKAQAKQAKQA (also: Tc-99m label coupled directly, site not characterised) [Tc-99m labeled GGGY-p5+14 peptide]
- % bound: 58%
